Assay results as given in patent EP4269437A1.
Several values for one entry are separate records, joined by “and”; a condition that tells them apart may be missing. Equal entries are not always repeated.

Key:
Assay in all cases: ELISA on coated protein, anti-human Fc HRP
[1] = target: cynomolgus monkey PD-1 protein (cynomolgus monkey) (UniProt B0LAJ3)
[2] = target: CTLA-4 (UniProt P16410)
[3] = target: ICOS (UniProt Q9Y6W8)
[4] = target: CD28 (UniProt P10747)
[5] = target: murine PD-1 protein (murine) (UniProt Q02242)
murine PD-1 protein (murine), sequence (Q02242 25-167 limits assumed): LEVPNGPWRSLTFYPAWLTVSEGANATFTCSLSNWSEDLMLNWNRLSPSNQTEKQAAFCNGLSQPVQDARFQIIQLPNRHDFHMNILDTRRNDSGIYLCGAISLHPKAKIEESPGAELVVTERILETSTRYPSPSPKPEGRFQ

CTLA-4, sequence (P16410 36-161 limits assumed): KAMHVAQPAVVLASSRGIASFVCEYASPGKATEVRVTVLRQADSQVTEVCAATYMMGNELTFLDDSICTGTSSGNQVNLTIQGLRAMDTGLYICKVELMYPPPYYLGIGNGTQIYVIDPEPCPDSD
ICOS, sequence (Q9Y6W8 21-140 limits assumed): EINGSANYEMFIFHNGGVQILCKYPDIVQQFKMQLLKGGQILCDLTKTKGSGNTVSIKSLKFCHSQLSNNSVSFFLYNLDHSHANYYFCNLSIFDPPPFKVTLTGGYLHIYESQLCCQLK
cynomolgus monkey PD-1 protein (cynomolgus monkey), sequence (B0LAJ3 entry or part of it limits assumed, form in doubt): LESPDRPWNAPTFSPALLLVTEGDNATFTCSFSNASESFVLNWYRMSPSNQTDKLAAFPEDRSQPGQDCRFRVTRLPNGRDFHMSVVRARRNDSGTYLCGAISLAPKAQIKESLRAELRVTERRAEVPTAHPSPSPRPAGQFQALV

ELISA (OD) [1] | ELISA (OD) [2] | ELISA (OD) [3] | ELISA (OD) [4] | ELISA (OD) [5] | Substance
2.22 OD and 2.32 OD | 0.09 OD and 0.086 OD and 0.089 OD | 0.125 OD and 0.107 OD and 0.131 OD | 0.066 OD and 0.054 OD and 0.053 OD | 0.079 OD and 0.088 OD and 0.09 OD | Keytruda (antibody)
1.89 OD and 1.79 OD and 1.83 OD | 0.024 OD and 0.022 OD and 0.019 OD | 0.023 OD and 0.021 OD and 0.022 OD | 0.02 OD and 0.021 OD and 0.023 OD | 0.024 OD and 0.023 OD | Opdivo (antibody)
